Source: the supplement of paper PMC12455559
± gives the standard deviation of the averaged measurements.

How the values were obtained:
[1] = melting temperature (DSF); higher = more thermostable
In short: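 Candidate enzymes were expressed in E. coli C41(DE3), purified on nickel beads and released by SUMO protease cleavage. For differential scanning fluorimetry, 45 μL enzyme (0 to 0.3 mg/mL) was mixed with 5 μL 5X Sypro Orange in sealed PCR plates on a Bio-Rad CFX96 instrument. Fluorescence was read from 25 °C in steps of 0.3 °C per cycle (ramp 0.3 °C/s) for 250 cycles. The read-out is melting temperature.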

[2] = purified protein yield per well (BCA); higher = higher soluble expression
In short: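 Each candidate enzyme was grown in E. coli C41(DE3) in a 2 mL autoinduction culture (100 µg/mL kanamycin; 2 h at 37 °C, then 40 h at 18 °C) and purified robotically via Ni-charged magnetic beads with SUMO protease cleavage. Purified protein yield per well was assessed using the Pierce Rapid Gold BCA kit. Readings below 25 ug (0.1 mg/mL) are beneath the detection threshold.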

[3] = PET hydrolysis, aromatic products released after 48 h (umol product/mg enzyme); higher = more PET depolymerization activity
In short: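 Candidate enzymes, made tagless by SUMO cleavage and purified on nickel beads, were added at 5 μg (50 μL) to 3.5 mg of either amorphous PET film or crystalline PET powder in 450 μL buffer. The sealed plates stood unshaken for 48 h at 40 or 60 °C. Activity on PET is the aromatic product found in the supernatant per mg enzyme, read at 260 and 280 nm against buffer blanks.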

[4] = substrate: aFilm, 40 °C, pH 5.5
[5] = substrate: aFilm, 40 °C, pH 6.5
[6] = substrate: aFilm, 40 °C, pH 7.5
[7] = substrate: aFilm, 60 °C, pH 5.5
[8] = substrate: aFilm, 60 °C, pH 6.5
[9] = substrate: aFilm, 60 °C, pH 7.5
[10] = substrate: cryPow, 40 °C, pH 5.5
[11] = substrate: cryPow, 40 °C, pH 6.5
[12] = substrate: cryPow, 40 °C, pH 7.5
[13] = substrate: cryPow, 40 °C, pH 8.5
[14] = substrate: cryPow, 60 °C, pH 5.5
[15] = substrate: cryPow, 60 °C, pH 6.5
[16] = substrate: cryPow, 60 °C, pH 7.5
[17] = substrate: cryPow, 60 °C, pH 8.5
[18] = substrate: cryPow, 40 °C, pH 4.5
[19] = substrate: cryPow, 60 °C, pH 4.5

## AGNPYERGPSPTAASIAADRGPFATAQVTVPRGNGFGGGVIYYPTDTSQGTFGAIAIAPGFNTAWSYYAWQGPRLASFGFVVIGIETNTLNDYADARATQLLAALDYLVNSSPVRDRVDRDRLAVGGHSMGGGGALLAATQRPSLLTAVGQAPYVPNGNLSGIKSPTIIFAGQADGTVTPQYAQNAYNTIPADVERAYVEIANEGHGFPAGGGGGNSGAFARTMMVWLKLFIDKDTRYAPFLCPTLSNANGISKYMASCPLDPPGGGPTASPTASPTATPSSTPTGPPPATSALKGVASGRCLDVNGASQANGAQAQIWDCNGQNNQQWTTTSAGELRVYGNKCLDVNGGSTADGTSVIIWDCNGQNNQKWRLNSDGTITAVGANKCLDVSGAGTANGTKTQIWTCHGGTNQKWTRV [DP092]
[1]
  melting temperature: 68.5 C
[2]
  purified protein yield per well: 197 µg
[3]; [4]
  PET hydrolysis: < 3
[3]; [5]
  PET hydrolysis: < 3
[3]; [6]
  PET hydrolysis: < 3
[3]; substrate: aFilm, 40 °C, pH 8.5
  PET hydrolysis: < 3
[3]; [7]
  PET hydrolysis: < 3
[3]; [8]
  PET hydrolysis: < 3
[3]; [9]
  PET hydrolysis: < 3
[3]; substrate: aFilm, 60 °C, pH 8.5
  PET hydrolysis: < 3
[3]; [10]
  PET hydrolysis: 7 ± 1.4
[3]; [11]
  PET hydrolysis: 13.5 ± 3.5
[3]; [12]
  PET hydrolysis: 15
[3]; [13]
  PET hydrolysis: 18.5 ± 2.1
[3]; [14]
  PET hydrolysis: < 3
[3]; [15]
  PET hydrolysis: < 3
[3]; [16]
  PET hydrolysis: < 3
[3]; [17]
  PET hydrolysis: < 3

## AGNPYQRGPDPTLASVAASRGTFATAQVSVPAGNGFNGGTIYYPTDSSQGTWGAVAIVPGYTALFANEEAWMGPWLASFGFVVIGIETNSRTDFDTARGTQLLAALDYLTQKSPVRDRVDSARLGVIGHSMGGGGVVYATEHRPSLKAAVALAPFSPSQDMSTDHVPTMVMGGQNDTVVTPSYLDGLYATMPASTQSDFVQLAGADHVAYTHPNTTEMRLLIPWLKIFLDDDTRYTQFLCPLMDSTGVSAYHSKCPYVPPGGSTSTPTPTPTITPTPPPSGACSATYRTVNSWSGGYQGEVTVTAGDAAINGWTVRWNLGGGQTVTQVWNGTLSTSGSTATVTNASYNGSLQASASTTFGFLANGTPSTPAITCTSP [TEP114]
[1]
  melting temperature: 41.8 C
[2]
  purified protein yield per well: 407 µg
[3]; substrate: aFilm, 40 °C, pH 4.5
  PET hydrolysis: < 3
[3]; [4]
  PET hydrolysis: < 3
[3]; [5]
  PET hydrolysis: < 3
[3]; [6]
  PET hydrolysis: < 3
[3]; substrate: aFilm, 60 °C, pH 4.5
  PET hydrolysis: < 3
[3]; [7]
  PET hydrolysis: < 3
[3]; [8]
  PET hydrolysis: < 3
[3]; [9]
  PET hydrolysis: < 3
[3]; [18]
  PET hydrolysis: 7
[3]; [10]
  PET hydrolysis: 12.5 ± 0.71
[3]; [11]
  PET hydrolysis: 24.5 ± 3.5
[3]; [12]
  PET hydrolysis: < 3
[3]; [19]
  PET hydrolysis: 6 ± 1.4
[3]; [14]
  PET hydrolysis: 9 ± 1.4
[3]; [15]
  PET hydrolysis: 1.5 ± 2.1
[3]; [16]
  PET hydrolysis: < 3

## AGNPYQRGPDPTLASVAASRGTFATAQVSVPPGNGFNGGTIYYPTDTTQGTWGAVAIVPGYTALFANEEAWMGPWLASFGFVVIGIETNSRNDFDTARGTQLLAALDYLTQKSPVRDRVDSARLGVIGHSMGGGGVVYATEHRPSLKAAVALAPFSPSQDMSTDHVPTMVMAGQNDTVVTPSYLDGLYATMPASAQSDFVQLAGADHVAYTHPNTTEMRLLIPWLKIFLDDDTRYTQFLCPLKDSTGVSMYRAKCPYVPPGGPTTSPTPTTTPTPPDGGACSATYRTVNSWSGGYQGEITVTAGGAAIDGWTVRWSLGGGQTVTQVWNGTLSTSGSTASVANASYNGSLQASASTTFGFLANGTPSTPALTCSSP [ESM084]
[1]
  melting temperature: 43.9 C
[2]
  purified protein yield per well: 119 µg
[3]; [18]
  PET hydrolysis: < 3
[3]; [10]
  PET hydrolysis: 5
[3]; [11]
  PET hydrolysis: < 3
[3]; [12]
  PET hydrolysis: < 3
[3]; [19]
  PET hydrolysis: < 3
[3]; [14]
  PET hydrolysis: < 3
[3]; [15]
  PET hydrolysis: < 3
[3]; [16]
  PET hydrolysis: < 3

## AIEHRRGPAPSEQSVLAANGPFSHSTFAVSDAASAKFGKGTIYYPNDTSQGTFGGVAISPGYTSTEPHIAWLGTRLAAHGFVTITITTNSLYDNPTERGQQLLAALDYLANNAPLAIRQRLDTSRMGVVGHSMGGGGSLYAVWNRPALKAAVPLAPYHTIKNWSGIKTPTMIIGGSADGVAPVEEHSERFYSSMTYARERAYAELEGANHSGSFLFEDHPIIGKFTVAWLKRFIDGDTRYDQFLCPPPTGAYLTEYRASCPHA [DP006]
[1]
  melting temperature: 46.9 C
[2]
  purified protein yield per well: 28 µg
[3]; [10]
  PET hydrolysis: < 3
[3]; [11]
  PET hydrolysis: < 3
[3]; [12]
  PET hydrolysis: < 3
[3]; [13]
  PET hydrolysis: 5

## ALNPYQRGPDPTDALLEAPRGPFATASTTVSRLSVSGFGGGVIYYPTDTSQGTFGGIAISPGYTASWSSLDWLGPRIASHGFVVIGIDTLSRYDQPASRGRQLLAALDYLTQRSSVRGRVDASRLAVAGHSMGGGGSLEAADSRPSLQAAVPLAPWHTTKNWSGVRVPTMIIGGESDSVAPVSTHSELFYASIPASSEKAYLELNGASHFFPNTTNTTMAKSMVSWLKRFVDDDVRYDPFLCPGPDGSAVEEYRQTCPLS [TEP140]
[1]
  melting temperature: 51.4 C
[2]
  purified protein yield per well: 36.5 µg
[3]; [18]
  PET hydrolysis: < 3
[3]; [10]
  PET hydrolysis: < 3
[3]; [11]
  PET hydrolysis: < 3
[3]; [12]
  PET hydrolysis: 4

## ANPYERGPAPTKASIEATTGYFATAKVTVAKSSVSGFGGGTIYYPTSTTSGTFGAIALVPGFTNVQSAVAWLGPRVASQGFVVFIIDTNSVYDSPDSRGTQLLAALDYLTNTSTVKSRVDATRLGVMGYSMGGGGALSATKTRTSIKASVPMAPYHSTKTWTTVKTPTLIVTGQSDTTAPPASHGLAFYNSLSTSIDKAYMELKGAGHSAPTSANTTIAKYSISWFKRFIDDDTRYDQFLCPNPTDTTISSYKSTCNYS [DP082]
[1]
  melting temperature: 61.9 C
[2]
  purified protein yield per well: 88 µg
[3]; [10]
  PET hydrolysis: 5
[3]; [11]
  PET hydrolysis: 76
[3]; [12]
  PET hydrolysis: 100
[3]; [13]
  PET hydrolysis: 93
[3]; [14]
  PET hydrolysis: < 3
[3]; [15]
  PET hydrolysis: 13
[3]; [16]
  PET hydrolysis: 22
[3]; [17]
  PET hydrolysis: 32
